Assay [1] has as its target T1, GFRα4 isoform a (GFRα4a), Fc fusion with 6 His (human).
T1 construct: the entry holds the whole fusion; also called GFR4α4a; immobilized GFRα4 isoform a
T1 chain: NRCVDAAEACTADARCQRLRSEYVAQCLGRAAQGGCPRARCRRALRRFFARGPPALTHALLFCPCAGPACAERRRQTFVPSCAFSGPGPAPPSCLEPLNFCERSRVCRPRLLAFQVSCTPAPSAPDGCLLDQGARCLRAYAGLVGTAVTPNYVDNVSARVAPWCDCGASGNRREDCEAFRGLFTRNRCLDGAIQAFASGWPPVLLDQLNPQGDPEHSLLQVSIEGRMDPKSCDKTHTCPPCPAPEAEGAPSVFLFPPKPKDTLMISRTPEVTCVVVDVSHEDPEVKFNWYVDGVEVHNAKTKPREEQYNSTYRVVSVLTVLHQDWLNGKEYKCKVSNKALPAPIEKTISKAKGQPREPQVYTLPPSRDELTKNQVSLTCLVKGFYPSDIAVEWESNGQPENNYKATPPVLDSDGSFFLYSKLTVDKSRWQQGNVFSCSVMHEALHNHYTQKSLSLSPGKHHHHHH
Description: phage ELISA, immobilized GFRα4a; first token of the cell (GFRα4b: NT). An excerpt: (§1) To perform these ELISAs, the GFRα4a isoform comprising a portion of GFRα4a (Asn24 -Ser245, UniProt accession #Q9GZZ7-2) was used, followed by a Factor Xa cleavage site/linker, a portion of optimized IgG1 Fc domain (Pro100-Lys330), and 6 His residues for purification. The GFRα4b isoform comprised a portion of GFRα4b (Asn24-Va1274, UniProt #Q9GZZ7-1), followed by a TEV cleavage site linker, and a portion of human IgG1 Fc domain (Asp104-Lys330).
A general note: In an ELISA, binding on a coated surface is turned into a signal by an enzyme label.

Assay [2] addresses T1, GFRα4 isoform a (GFRα4a), Fc fusion …. Put plainly: phage ELISA, immobilized GFRα4a; first token of the cell.
From the text: as §1

Assay [3] concerns the target T2, GFRα4 isoform b (GFRα4b), Fc fusion (human).
T2 construct: the entry holds the whole fusion; also called GFR4α4b; GFRα4-Fc
Put plainly: phage ELISA, immobilized GFRα4b; second token of the cell.
From the text: as §1

T2 sequence (chain, as listed by the source limits assumed): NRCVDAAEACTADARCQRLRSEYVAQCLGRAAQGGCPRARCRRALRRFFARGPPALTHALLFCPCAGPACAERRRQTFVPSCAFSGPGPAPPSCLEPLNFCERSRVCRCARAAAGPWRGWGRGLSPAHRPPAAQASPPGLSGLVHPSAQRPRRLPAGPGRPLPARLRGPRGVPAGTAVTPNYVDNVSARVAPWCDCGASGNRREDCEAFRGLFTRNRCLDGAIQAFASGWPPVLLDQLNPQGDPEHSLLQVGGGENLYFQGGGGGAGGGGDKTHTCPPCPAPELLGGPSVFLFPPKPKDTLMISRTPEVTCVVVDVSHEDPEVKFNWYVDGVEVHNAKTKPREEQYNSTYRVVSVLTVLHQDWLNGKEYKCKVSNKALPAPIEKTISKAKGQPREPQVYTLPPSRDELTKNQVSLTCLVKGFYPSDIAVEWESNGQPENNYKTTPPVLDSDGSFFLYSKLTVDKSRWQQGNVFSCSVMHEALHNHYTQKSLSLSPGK

B1: 7.H2m1.L2 (scFv)
scFv: QSVLTQPPSASGTPGQRVTISCSGSSAHKTYTVNWYQQLPGTAPKLLIYVKSDGSYQRPSGVPDRFSGSKSGTSASLAISGLQSEDEADYYCGADDNGGYVFGGGTKLTVLGGGSSRSSSSGGGGSGGGGEQSVKESGGGLVQPGGSLRLSCAASGFTLSRHALTWVRQAPGKGLEWIGAIDNAGTTYYASWAKSRFTISRNTDLHTVYLQMNSLRAEDTAVYFCARVFYDINSGYYLDGMDLWGPGTLVTVSS
notes: pIII not in the entry; order Vλ-linker-VH; The printed entry has an E before QSVKE of the VH; also called scFv 7
For B1, in assay [1], the binding result was “no binding”.

B2: 28.H1.L3m5 (scFv)
scFv: QSALTQPASVSGSPGQSITISCTGTSAHKTYTVSWYQQHPGKAPKLMIYVKSDGSYTKGTGVPNRFSGSSSGADRYLTISGLQAEDEADYYCGADDNGGYVFGGGTQLTVLGGGSSRSSSSGGGGSGGGGQVQLQESGPGLVKPSETLSLTCAVSGYSISRHALTWIRQPPGKGLEWIGAIDNAGTTYYASWAKSRVTISVDTSKNQFSLKLSSVTAADTAVYYCARVFYDINSGYYLDGMDLWGPGTLVTVSS
notes: pIII not in the entry; order Vλ-linker-VH; also called scFv 28
Take B2: the binding result in assay [2] and in assay [3] was “no binding” throughout.

B3: 27.H1.L3m4 (scFv)
scFv: QSALTQPASVSGSPGQSITISCTGTSAHKTYTVSWYQQHPGKAPKYLMQVKSDGSYTKGTGVPNRFSGSSSGADRYLTISGLQAEDEADYYCGADDNGGYVFGGGTQLTVLGGGSSRSSSSGGGGSGGGGQVQLQESGPGLVKPSETLSLTCAVSGYSISRHALTWIRQPPGKGLEWIGAIDNAGTTYYASWAKSRVTISVDTSKNQFSLKLSSVTAADTAVYYCARVFYDINSGYYLDGMDLWGPGTLVTVSS
notes: pIII not in the entry; order Vλ-linker-VH; also called scFv 27
Take B3: the binding result in assay [2] and in assay [3] was “no binding” in each case.

B4: 18.H1.L3m3 (scFv)
scFv: QSALTQPASVSGSPGQSITISCTGTSAHKTYTIDWYQQHPGKAPKLMIYVKSDGSYTKGTGVSNRFSGSKSGNTASLTISGLQAEDEADYYCGADDNGGYVFGGGTQLTVLGGGSSRSSSSGGGGSGGGGQVQLQESGPGLVKPSETLSLTCAVSGYSISRHALTWIRQPPGKGLEWIGAIDNAGTTYYASWAKSRVTISVDTSKNQFSLKLSSVTAADTAVYYCARVFYDINSGYYLDGMDLWGPGTLVTVSS
notes: pIII not in the entry; order Vλ-linker-VH; also called scFv 18
For the molecule B4, the binding result in assay [2] and in assay [3] was “no binding” each time.

B5: 1.H1.L3 (scFv)
scFv: QSALTQPASVSGSPGQSITISCTGTSAHKTYTVSWYQQHPGKAPKLMIYVKSDGSYNRPSGVSNRFSGSKSGNTASLTISGLQAEDEADYYCGADDNGGYVFGGGTKLTVLGGGSSRSSSSGGGGSGGGGQVQLQESGPGLVKPSETLSLTCAVSGYSISRHALTWIRQPPGKGLEWIGAIDNAGTTYYASWAKSRVTISVDTSKNQFSLKLSSVTAADTAVYYCARVFYDINSGYYLDGMDLWGPGTLVTVSS
notes: pIII not in the entry; order Vλ-linker-VH; also called scFv 1
As to B5, the binding result in assay [1] is reported as “no binding”.

B6: 24.H2.L3m1 (scFv)
scFv: QFVLTQPASVSGSPGQSITISCTLSSAHKTYTIDWYQQHPGKAPKYLMQVKSDGSYTKGTGVPNRFSGSSSGADRYLTISGLQAEDEADYVCGADDNGGYVFGGGTQLTVTGGGSSRSSSSGGGGSGGGGEVQLVESGGGLVQPGGSLRLSCAASGFTFSRHALTWVRQAPGKGLEWVSAIDNAGTTYYASWAKSRFTISRDNAKNSLYLQMNSLRAEDTAVYYCARVFYDINSGYYLDGMDLWGPGTLVTVSS
notes: pIII not in the entry; order Vλ-linker-VH; also called scFv 24
As for B6, the binding result in assay [2] and in assay [3] was “binds” in each case.

B7: 4.H1m1.L3m1 (scFv)
scFv: QFVLTQPASVSGSPGQSITISCTLSSAHKTYTIDWYQQHPGKAPKYLMQVKSDGSYTKGTGVPNRFSGSSSGADRYLTISGLQAEDEADYVCGADDNGGYVFGGGTQLTVTGGGSSRSSSSGGGGSGGGGQQSVKESGPGLVKPSETLSLTCAVSGFSLSRHALTWVRQPPGKGLEWIGAIDNAGTTYYASWAKSRVTISRNTDLHTVSLKLSSVTAADTAVYFCARVFYDINSGYYLDGMDLWGPGTLVTVSS
notes: pIII not in the entry; order Vλ-linker-VH; also called scFv 4
For the molecule B7, the binding result in assay [2] and in assay [3] was “binds” throughout.

B8: 13.H1.L1 (scFv)
scFv: QLVLTQSPSASASLGASVKLTCTLSSAHKTYTIAWHQQQPEKGPRYLMKVKSDGSYSKGDGIPDRFSGSSSGAERYLTISSLQSEDEADYYCGADDNGGYVFGGGTKLTVLGGGSSRSSSSGGGGSGGGGQVQLQESGPGLVKPSETLSLTCAVSGYSISRHALTWIRQPPGKGLEWIGAIDNAGTTYYASWAKSRVTISVDTSKNQFSLKLSSVTAADTAVYYCARVFYDINSGYYLDGMDLWGPGTLVTVSS
notes: pIII not in the entry; order Vλ-linker-VH; also called scFv 13
B8: the binding result in assay [1] is given as “no binding”.

B9: 5.H2.L2 (scFv)
scFv: QSVLTQPPSASGTPGQRVTISCSGSSAHKTYTVNWYQQLPGTAPKLLIYVKSDGSYQRPSGVPDRFSGSKSGTSASLAISGLQSEDEADYYCGADDNGGYVFGGGTKLTVLGGGSSRSSSSGGGGSGGGGEVQLVESGGGLVQPGGSLRLSCAASGFTFSRHALTWVRQAPGKGLEWVSAIDNAGTTYYASWAKSRFTISRDNAKNSLYLQMNSLRAEDTAVYYCARVFYDINSGYYLDGMDLWGPGTLVTVSS
notes: pIII not in the entry; order Vλ-linker-VH; also called scFv 5
On to B9, for which the binding result in assay [1] is on record as “no binding”.

B10: 11.H2m1.L1 (scFv)
scFv: QLVLTQSPSASASLGASVKLTCTLSSAHKTYTIAWHQQQPEKGPRYLMKVKSDGSYSKGDGIPDRFSGSSSGAERYLTISSLQSEDEADYYCGADDNGGYVFGGGTKLTVLGGGSSRSSSSGGGGSGGGGEQSVKESGGGLVQPGGSLRLSCAASGFTLSRHALTWVRQAPGKGLEWIGAIDNAGTTYYASWAKSRFTISRNTDLHTVYLQMNSLRAEDTAVYFCARVFYDINSGYYLDGMDLWGPGTLVTVSS
notes: pIII not in the entry; order Vλ-linker-VH; The printed entry has an E before QSVKE of the VH; also called scFv 11
For the molecule B10, the binding result in assay [1] is “no binding”.

B11: 8.H2m1.L2m1 (scFv)
scFv: QFVLTQPPSASGTPGQRVTISCTLSSAHKTYTIDWYQQLPGTAPKLLIYVKSDGSYTKGTGVPDRFSGSSSGADRYLAISGLQSEDEADYYCGADDNGGYVFGGGTQLTVTGGGSSRSSSSGGGGSGGGGEQSVKESGGGLVQPGGSLRLSCAASGFTLSRHALTWVRQAPGKGLEWIGAIDNAGTTYYASWAKSRFTISRNTDLHTVYLQMNSLRAEDTAVYFCARVFYDINSGYYLDGMDLWGPGTLVTVSS
notes: pIII not in the entry; order Vλ-linker-VH; The printed entry has an E before QSVKE of the VH; also called scFv 8
On to B11, for which the binding result in assay [2] and in assay [3] was “binds” each time.

B12: 16.H1m1.L1m1 (scFv)
scFv: QFVLTQSPSASASLGASVKLTCTLSSAHKTYTIDWYQQQPEKGPRYLMQVKSDGSYTKGTGVPDRFSGSSSGADRYLTISSLQSEDEADYYCGADDNGGYVFGGGTQLTVTGGGSSRSSSSGGGGSGGGGQQSVKESGPGLVKPSETLSLTCAVSGFSLSRHALTWVRQPPGKGLEWIGAIDNAGTTYYASWAKSRVTISRNTDLHTVSLKLSSVTAADTAVYFCARVFYDINSGYYLDGMDLWGPGTLVTVSS
notes: pIII not in the entry; order Vλ-linker-VH; also called scFv 16
As for B12, the binding result in assay [2] and in assay [3] was “binds” throughout.

B13: 15.H1m1.L1 (scFv)
scFv: QLVLTQSPSASASLGASVKLTCTLSSAHKTYTIAWHQQQPEKGPRYLMKVKSDGSYSKGDGIPDRFSGSSSGAERYLTISSLQSEDEADYYCGADDNGGYVFGGGTKLTVLGGGSSRSSSSGGGGSGGGGQQSVKESGPGLVKPSETLSLTCAVSGFSLSRHALTWVRQPPGKGLEWIGAIDNAGTTYYASWAKSRVTISRNTDLHTVSLKLSSVTAADTAVYFCARVFYDINSGYYLDGMDLWGPGTLVTVSS
notes: pIII not in the entry; order Vλ-linker-VH; also called scFv 15
In the case of B13, the binding result in assay [1] was “no binding”.

B14: 29.H2.L1m3 (scFv)
scFv: QLVLTQSPSASASLGASVKLTCTLSSAHKTYTIDWYQQQPEKGPRYLMQVKSDGSYTKGTGVPDRFSGSSSGADRYLTISSLQSEDEADYYCGADDNGGYVFGGGTQLTVTGGGSSRSSSSGGGGSGGGGEVQLVESGGGLVQPGGSLRLSCAASGFTFSRHALTWVRQAPGKGLEWVSAIDNAGTTYYASWAKSRFTISRDNAKNSLYLQMNSLRAEDTAVYYCARVFYDINSGYYLDGMDLWGPGTLVTVSS
notes: pIII not in the entry; order Vλ-linker-VH; The printed VL ends TVT; also called scFv 29
Turning to B14, the binding result in assay [2] and in assay [3] was “binds” each time.

B15: 21.H2.L1m2 (scFv)
scFv: QFVLTQSPSASASLGASVKLTCTLSSAHKTYTIDWHQQQPEKGPRYLMQVKSDGSYTKGTGIPDRFSGSSSGAERYLTISSLQSEDEADYYCGADDNGGYVFGGGTQLTVLGGGSSRSSSSGGGGSGGGGEVQLVESGGGLVQPGGSLRLSCAASGFTFSRHALTWVRQAPGKGLEWVSAIDNAGTTYYASWAKSRFTISRDNAKNSLYLQMNSLRAEDTAVYYCARVFYDINSGYYLDGMDLWGPGTLVTVSS
notes: pIII not in the entry; order Vλ-linker-VH; also called scFv 21
With B15, the binding result in assay [2] and in assay [3] was “no binding” each time.

B16: 9.H2.L1 (scFv)
scFv: QLVLTQSPSASASLGASVKLTCTLSSAHKTYTIAWHQQQPEKGPRYLMKVKSDGSYSKGDGIPDRFSGSSSGAERYLTISSLQSEDEADYYCGADDNGGYVFGGGTKLTVLGGGSSRSSSSGGGGSGGGGEVQLVESGGGLVQPGGSLRLSCAASGFTFSRHALTWVRQAPGKGLEWVSAIDNAGTTYYASWAKSRFTISRDNAKNSLYLQMNSLRAEDTAVYYCARVFYDINSGYYLDGMDLWGPGTLVTVSS
notes: pIII not in the entry; order Vλ-linker-VH; also called scFv 9
Take B16: the binding result in assay [1] is listed as “no binding”.

The values above are taken from patent US20210095036A1 (University of Pennsylvania, published 2021).
